Like-named read-outs stand apart in the source and are kept apart here.

Experiment [1] deals with Actin (rabbit skeletal muscle alpha actin), polymerized (F-actin) (rabbit) (UniProt P68135). Kind of experiment: co-sedimentation.
Experiment [2] shares this target. Kind of experiment: co-sedimentation. This is another data set of the same source.

With “talin N-R12 (C-terminal truncation), P26039 1-2294”, the co-sedimented talin fragment relative to talin-FL (relative to talin-FL) in experiment [1] was determined as 0.68. Consider “talin N-R11 (C-terminal truncation lacking R12 and the C-terminus), P26039 1-2141”, for which the co-sedimented talin fragment relative to talin-FL (relative to talin-FL) worked out at 1.1 in experiment [2] and 1.3 in experiment [1]. The matching figures for “talin R1-C (truncation lacking the FERM domain), P26039 482-2541”: 1.3 and 1.1.

Values taken from article PMC6856716.
